Here are results for 2 proteins from US20170269069.

For the data set, the system named is recombinant histone H3, wild type.

B1: recombinant USP39 (enzyme, UniProt Q3TIX9 1-564, looked up, species assumed)
Ubiquitin carboxyl-terminal hydrolase 39: MSSRSKRQSHGSTRGKRESESRGSSGRIKKERDREKEPEAASSRGSPVRVKREAEPAAREVPAPALPVVRVKREREADEDSEPEREVRAKNGRVDSEDRRSRHCPYLDTINRSVLDFDFEKLCSISLSHINAYACLVCGKYFQGRGLKSHAYIHSVQFSHHVFLNLHTLKFYCLPDNYEIIDSSLEDITYVLKPTFTKQQIANLDKQAKLSRAYDGTTYLPGIVGLNNIKANDYANAVLQALSNVPPLRNYFLEEDNYKNIKRPPGDIMFLLVQRFGELMRKLWNPRNFKAHVSPHEMLQAVVLCSKKTFQITKQGDGVDFLSWFLNALHSALGGTKKKKKTIVNDVFQGSMRIFTKKLPHPDLPAEEKEQLLHNDEYQETMVESTFMYLTLDLPTAPLYKDEKEQLIIPQVPLFNILAKFNGITEKEYKTYKENFLKRFQLTKLPPYLIFCIKRFTKNNFFVEKNPTIVNFPITNVDLREYLSEEVQAVHKNTTYDLIANIVHDGKPSEGSYRIHVLHHGTGKWYELQDLQVTDILPQMITLSEAYIQIWKRRDNDETNQQGA
modifications: His tag
In the case of B1, the “H3NT protease activity (in vitro H3NT cleavage assay, Western blot with the H3CT antibody)” value is listed as “only rMMP-9 possessed H3NT protease activity”.

B2: recombinant DIM1 (enzyme, UniProt P83877 1-142, looked up, species assumed)
Thioredoxin-like protein 4A: MSYMLPHLHNGWQVDQAILSEEDRVVVIRFGHDWDPTCMKMDEVLYSIAEKVKNFAVIYLVDITEVPDFNKMYELYDPCTVMFFFRNKHIMIDLGTGNNNKINWAMEDKQEMVDIIETVYRGARKGRGLVVSPKDYSTKYRY
modifications: His tag
As for B2, the “H3NT protease activity (in vitro H3NT cleavage assay, Western blot with the H3CT antibody)” value is “only rMMP-9 possessed H3NT protease activity”.
